Here are results for 18 molecules from US20030068675, “Position dependent recognition of GNN nucleotide triplets by zinc fingers” (published 2003).

Residue numbers refer to the chain shown, from its start.

Broadly, the Kd is the equilibrium constant for the complex coming apart.

Test in all cases: EMSA
What all share (conditions): tags: MBP fusion
In general terms: In EMSA bound probe runs differently from free probe, usually more slowly.

Data set [1] addresses T1, ZFP SBS#1065 (synthetic).
T1 chain: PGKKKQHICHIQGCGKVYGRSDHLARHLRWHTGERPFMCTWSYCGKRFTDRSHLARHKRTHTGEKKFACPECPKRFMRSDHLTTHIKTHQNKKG
In a few lines:
(§1)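 Purified ZFP was titrated against labeled double-stranded target (1 nM or lower, at least 10-fold below expected Kd) carrying the natural binding site with flanks. Binding buffer was 10 mM Tris pH 7.5, 100 mM KCl, 1 mM MgCl2, 0.1 mM ZnCl2, 5 mM DTT, 10% glycerol, 0.02% BSA, with equilibration for at least 45 min. Bound and free target were separated on a 10% polyacrylamide gel.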

The target of data set [2] is T2, ZFP SBS#1064 (synthetic).
T2 chain: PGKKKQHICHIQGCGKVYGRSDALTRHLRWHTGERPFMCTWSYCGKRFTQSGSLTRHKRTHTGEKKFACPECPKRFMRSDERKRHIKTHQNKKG
Summed up: as §1

The target in data set [3] is ZFP SBS#979 (synthetic, UniProt P08047). In a few lines: as §1
Data set [4] addresses T3, ZFP SBS#980 (synthetic, UniProt P08047).
T3 chain: T2 chain with A23D, Q50R, G52D, S53E, T55Q, E81A, R82L, K83R, R84E
Summed up: as §1

Data set [5] addresses T4, ZFP SBS#1082 (synthetic).
T4 chain: T2 chain with A23E, Q50R, G52D, S53E, E81A, R82L, K83R, R84E
In a few lines: as §1

Data set [6] has as its target T5, ZFP SBS#1071 (synthetic, UniProt P08047).
T5 chain: T2 chain with R20D, S21R, D22S, A23H, S53D, E81H, R82L, K83S
Summed up:
as §1

The target in data set [7] is T6, ZFP SBS#1070 (synthetic, UniProt P08047).
T6 chain: T2 chain with R20D, S21R, D22S, A23H, E81H, R82L, K83S
In a few lines:
as §1

Data set [8] addresses ZFP SBS#1079 (synthetic, UniProt P08047). Summed up: as §1
The target in data set [9] is ZFP SBS#1078 (synthetic, UniProt P08047). Summed up: as §1
Chain of ZFP SBS#1078 (P08047 other isoform, or with tags, fused parts or gaps): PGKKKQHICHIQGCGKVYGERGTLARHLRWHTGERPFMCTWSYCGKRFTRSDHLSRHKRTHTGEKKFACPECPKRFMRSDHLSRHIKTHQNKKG
The target in data set [10] is ZFP SBS#1073 (synthetic). In a few lines: as §1
Chain of ZFP SBS#1073 (synthetic) (chain, as listed by the source): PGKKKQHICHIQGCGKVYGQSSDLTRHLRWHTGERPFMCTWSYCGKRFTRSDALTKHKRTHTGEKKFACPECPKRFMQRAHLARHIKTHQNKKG
Data set [11] concerns the target ZFP SBS#1072 (synthetic). Summed up:
as §1

Data set [12] deals with T7, ZFP SBS#1076 (synthetic).
T7 chain: T2 chain with A23E
In a few lines:
as §1

Data set [13] deals with T8, ZFP SBS#1077 (synthetic).
T8 chain: T2 chain with A23E, S53D, T55R
Summed up:
as §1

Data set [14] has as its target T9, ZFP SBS#1075 (synthetic).
T9 chain: T2 chain with A23E, Q50R, G52D, S53A, R56K, E81A, R82L, K83T
In a few lines: as §1

For data set [15], the target named is T10, ZFP SBS#1069 (synthetic).
T10 chain: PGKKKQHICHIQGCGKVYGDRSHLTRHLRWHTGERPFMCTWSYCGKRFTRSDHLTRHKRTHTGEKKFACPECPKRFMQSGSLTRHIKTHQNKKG
Summed up:
as §1

The target in data set [16] is T11, ZFP SBS#463 (synthetic).
T11 chain: T2 chain with A23N, Q50R, G52D, S53N, T55A, E81A, R82L, K83A
Summed up: as §1

Data set [17] concerns the target T12, ZFP SBS#464 (synthetic).
T12 chain: T2 chain with A23N, Q50R, G52D, S53N, T55A, E81S, R82L, K83A
In a few lines: as §1

Data set [18] addresses T13, ZFP SBS#1068 (synthetic).
T13 chain: T10 chain with S81D
Summed up: as §1

Data set [19] has as its target T14, ZFP SBS#1062 (synthetic).
T14 chain: T10 chain with D20R, R21S, S22D, T25A, H53E, T55Q, Q78T
In a few lines:
as §1

In data set [20] the target is ZFP SBS#1061 (synthetic). Summed up: as §1
Chain of ZFP SBS#1061 (synthetic) (chain, as listed by the source): as the sequence (P08047 other isoform, or with tags, fused parts or gaps) above, with E20R, R21S, G22D, T23H, H53E, S55Q, R78Q, D80S, H81A, S83T counted along it
Data set [21] addresses T15, ZFP SBS#1063 (synthetic, UniProt P08047).
T15 chain: T10 chain with D20R, R21S, S22D, T25A, H53E, T55Q, Q78M, G80H, S81A, T83S
In a few lines:
as §1

In data set [22] the target is T16, ZFP SBS#1059 (synthetic).
T16 chain: T1 chain with H23E, A25T, H53D, A55T, T83S, T84R
Summed up:
as §1

The target of data set [23] is T17, ZFP SBS#1058 (synthetic).
T17 chain: T1 chain with H23E, A25T, H53S, A55T, T83S, T84R
Summed up: as §1

Data set [24] concerns the target T18, ZFP SBS#1066 (synthetic).
T18 chain: T1 chain with R20Q, D22S, A25T, H81N, T83V, T84R
In a few lines: as §1

The target in data set [25] is T19, ZFP SBS#1067 (synthetic).
T19 chain: T1 chain with R20T, D22G, A25V, H81N, T83V, T84R
Summed up:
as §1

The target of data set [26] is T20, ZFP SBS#1060 (synthetic).
T20 chain: T2 chain with R20E, S21R, D22G, A23T, T25A, Q50R, G52D, S53N, T55A
Summed up:
as §1

Data set [27] concerns the target ZFP SBS#1057 (synthetic). In a few lines: as §1
Data set [28] addresses ZFP SBS#1054 (synthetic). In a few lines: as §1
The target of data set [29] is T21, ZFP SBS#1055 (synthetic).
T21 chain: T2 chain with A23H, T25A, R78T, D80G, E81D, R82L, K83T
Summed up:
as §1

In data set [30] the target is ZFP SBS#1056 (synthetic). Summed up: as §1
Chain of ZFP SBS#1056 (synthetic) (chain, as listed by the source): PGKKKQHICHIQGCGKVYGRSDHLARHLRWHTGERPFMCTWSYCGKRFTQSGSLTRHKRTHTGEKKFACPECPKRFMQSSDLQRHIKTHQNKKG
The target in data set [31] is T22, ZFP SBS#1081 (synthetic, UniProt P08047).
T22 chain: T2 chain with Q50R, G52D, S53N, E81H, R82L, K83S
Summed up:
as §1

The target of data set [32] is T23, ZFP SBS#1080 (synthetic).
T23 chain: T2 chain with A23E, Q50R, G52D, S53N, T55A, E81A, R82L, K83R, R84E
In a few lines:
as §1

Chain of ZFP SBS#1072 (synthetic) (chain, as listed by the source): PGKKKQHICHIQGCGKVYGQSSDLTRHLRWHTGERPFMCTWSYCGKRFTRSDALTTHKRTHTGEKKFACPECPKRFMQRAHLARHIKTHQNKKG
Chain of ZFP SBS#1057 (synthetic) (chain, as listed by the source): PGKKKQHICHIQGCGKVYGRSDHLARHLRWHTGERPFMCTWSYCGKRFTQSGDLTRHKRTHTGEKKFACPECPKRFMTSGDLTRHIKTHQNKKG

B1: TGGGGCGGG (dsDNA)
DNA 1: TGGGGCGGG
DNA 2: CCCGCCCCA
With B1, in [1], binding was characterised by a dissociation constant (Kd) of 1370 pM.

B2: GCGGCAGTG (dsDNA)
DNA 1: GCGGCAGTG
DNA 2: CACTGCCGC
The molecule B2 registered a Kd in [2] of 453 pM.

B3: CTGGCGGCG (dsDNA)
DNA 1: CTGGCGGCG
DNA 2: CGCCGCCAG
Turning to B3, the Kd turned out to be 1590 pM in data set [3], 2200 pM in data set [4] and 152 pM in [5].

B4: GGGGCAGGC (dsDNA)
DNA 1: GGGGCAGGC
DNA 2: GCCTGCCCC
Consider B4, for which the values for the Kd in [6] and in [7] were 200 pM and 456 pM, respectively.

B5: GGGGGGGCC (dsDNA)
DNA 1: GGGGGGGCC
DNA 2: GGCCCCCCC
In the case of B5, the Kd was 4100 pM in data set [8] and 200 pM in data set [9].

B6: GGATTGGCT (dsDNA)
DNA 1: GGATTGGCT
DNA 2: AGCCAATCC
On to B6, for which the values for the equilibrium dissociation constant (Kd) in [10] and in data set [11] were 1370 pM and 460 pM, respectively.

B7: GCGGCAGCG (dsDNA)
DNA 1: GCGGCAGCG
DNA 2: CGCTGCCGC
As for B7, the Kd was found to be 4100 pM in data set [12] and 6200 pM in [13].

B8: GTGTTGGCG (dsDNA)
DNA 1: GTGTTGGCG
DNA 2: CGCCAACAC
With B8, the Kd in data set [14] was 915 pM.

B9: GCAGGCGGT (dsDNA)
DNA 1: GCAGGCGGT
DNA 2: ACCGCCTGC
Turning to B9, in [15], binding was characterised by a dissociation constant (Kd) of 100 pM.

B10: GTGGAGGAGA (dsDNA)
DNA 1: GTGGAGGAGA
DNA 2: TCTCCTCCAC
As to B10, the equilibrium dissociation constant (Kd) in data set [16] was determined as 500 pM; in data set [17], 400 pM.

B11: GCAGGGGGC (dsDNA)
DNA 1: GCAGGGGGC
DNA 2: GCCCCCTGC
In data set [18], B11 came in with a Kd of 2050 pM. In other words, the single-digit nanomolar range.

B12: GTTGCGGGG (dsDNA)
DNA 1: GTTGCGGGG
DNA 2: CCCCGCAAC
B12: the Kd is 68 pM in data set [19], 165 pM in data set [20] and 960 pM in [21].

B13: GGGGCCGCG (dsDNA)
DNA 1: GGGGCCGCG
DNA 2: CGCGGCCCC
For B13, the Kd in data set [22] worked out at 152 pM; in [23], 6280 pM.

B14: GAGGGCGGT (dsDNA)
DNA 1: GAGGGCGGT
DNA 2: ACCGCCCTC
As for B14, the Kd in data set [24] was 150 pM; in data set [25], 1370 pM.

B15: GCGGAGGCC (dsDNA)
DNA 1: GCGGAGGCC
DNA 2: GGCCTCCGC
B15: the equilibrium dissociation constant (Kd) in data set [26] turned out to be 690 pM.

B16: GCTGCAGGG (dsDNA)
DNA 1: GCTGCAGGG
DNA 2: CCCTGCAGC
In the case of B16, the Kd in data set [27] was 483 pM; in data set [28] it was 33 pM; in data set [29] it was 18700 pM; in data set [30], 45 pM.

B17: GGGGAGGTG (dsDNA)
DNA 1: GGGGAGGTG
DNA 2: CACCTCCCC
Molecule B17 yielded a Kd in [31] of 50 pM.

B18: CTGGAGGCG (dsDNA)
DNA 1: CTGGAGGCG
DNA 2: CGCCTCCAG
As to B18, in data set [32], the affinity, expressed as Kd, was 1370 pM.
